Target: T1, recombinant Kap121p (yeast, UniProt P32337 1-1089)
T1 sequence (looked up): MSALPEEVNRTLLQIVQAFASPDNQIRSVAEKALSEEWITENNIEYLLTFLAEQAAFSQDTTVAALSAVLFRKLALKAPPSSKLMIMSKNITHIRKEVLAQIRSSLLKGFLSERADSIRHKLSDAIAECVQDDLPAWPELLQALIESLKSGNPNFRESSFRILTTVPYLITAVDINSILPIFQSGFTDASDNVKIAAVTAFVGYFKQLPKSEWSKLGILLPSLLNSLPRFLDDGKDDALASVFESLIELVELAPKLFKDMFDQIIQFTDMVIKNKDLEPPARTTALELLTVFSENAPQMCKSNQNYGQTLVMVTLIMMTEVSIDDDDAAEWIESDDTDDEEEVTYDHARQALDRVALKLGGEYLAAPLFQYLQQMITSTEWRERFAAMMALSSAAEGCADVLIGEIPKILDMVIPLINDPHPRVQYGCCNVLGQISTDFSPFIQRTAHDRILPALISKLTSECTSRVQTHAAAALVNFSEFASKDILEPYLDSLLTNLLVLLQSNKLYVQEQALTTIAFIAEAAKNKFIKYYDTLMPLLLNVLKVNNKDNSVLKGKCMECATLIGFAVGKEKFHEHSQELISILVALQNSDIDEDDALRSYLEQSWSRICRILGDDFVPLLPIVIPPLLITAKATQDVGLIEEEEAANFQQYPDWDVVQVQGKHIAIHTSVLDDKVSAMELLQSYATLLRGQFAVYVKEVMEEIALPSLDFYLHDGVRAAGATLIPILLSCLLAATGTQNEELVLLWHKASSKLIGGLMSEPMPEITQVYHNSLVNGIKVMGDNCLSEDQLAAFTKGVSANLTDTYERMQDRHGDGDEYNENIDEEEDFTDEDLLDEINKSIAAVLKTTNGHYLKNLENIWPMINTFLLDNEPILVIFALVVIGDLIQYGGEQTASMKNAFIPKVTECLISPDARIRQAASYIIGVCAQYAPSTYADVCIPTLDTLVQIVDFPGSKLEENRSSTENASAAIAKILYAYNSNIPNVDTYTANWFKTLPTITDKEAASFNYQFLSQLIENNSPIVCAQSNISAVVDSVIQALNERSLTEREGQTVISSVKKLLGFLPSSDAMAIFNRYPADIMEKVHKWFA
Assay: pull-down

binding result: binds
Binder: RNAEFKVSKNSTSFKNPRRLEIKDGRSLFLRNRGKIHSGVLSSIESDL (domain or fragment, yeast, UniProt Q03790 401-448, looked up) [GST-401–448]
